Results on 3 molecules are retold here after article doi:10.1101/2024.07.24.604550 (bioRxiv, 2024).

Data set [1] concerns the target T1, GST-ECT1 (Arabidopsis, UniProt Q3MK94 1-428).
T1 sequence (looked up): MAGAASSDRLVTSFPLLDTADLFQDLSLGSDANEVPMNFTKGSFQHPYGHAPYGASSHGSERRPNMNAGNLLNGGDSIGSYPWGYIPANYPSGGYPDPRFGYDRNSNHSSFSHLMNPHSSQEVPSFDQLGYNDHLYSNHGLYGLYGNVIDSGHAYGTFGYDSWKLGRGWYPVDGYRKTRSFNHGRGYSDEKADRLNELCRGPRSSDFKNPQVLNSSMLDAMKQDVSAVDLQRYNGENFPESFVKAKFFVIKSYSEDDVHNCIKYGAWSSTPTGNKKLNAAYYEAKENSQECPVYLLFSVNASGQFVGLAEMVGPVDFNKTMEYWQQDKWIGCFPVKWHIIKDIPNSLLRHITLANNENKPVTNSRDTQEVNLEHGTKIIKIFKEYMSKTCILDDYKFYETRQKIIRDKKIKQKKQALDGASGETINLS
The experiment in a line: pull-down.

The target in data set [2] is T2, GST-ECT1 (Arabidopsis thaliana (Col-0), UniProt Q3MK94 1-428).
T2 sequence: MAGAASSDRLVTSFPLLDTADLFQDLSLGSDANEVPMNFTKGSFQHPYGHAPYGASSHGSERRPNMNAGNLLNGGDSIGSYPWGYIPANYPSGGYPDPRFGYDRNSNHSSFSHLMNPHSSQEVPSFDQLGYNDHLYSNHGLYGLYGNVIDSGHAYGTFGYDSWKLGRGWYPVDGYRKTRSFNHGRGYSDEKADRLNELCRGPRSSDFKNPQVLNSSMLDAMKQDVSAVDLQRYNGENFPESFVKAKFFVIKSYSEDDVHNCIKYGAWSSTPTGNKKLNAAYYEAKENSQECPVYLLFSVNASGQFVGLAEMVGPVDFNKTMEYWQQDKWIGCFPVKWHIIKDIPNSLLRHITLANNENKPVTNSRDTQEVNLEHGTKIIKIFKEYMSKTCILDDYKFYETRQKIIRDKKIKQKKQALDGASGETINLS
The experiment in a line: EMSA.

B1: MBP-ECT1 (natural protein, Arabidopsis, UniProt Q3MK94 1-428, looked up)
chain: MAGAASSDRLVTSFPLLDTADLFQDLSLGSDANEVPMNFTKGSFQHPYGHAPYGASSHGSERRPNMNAGNLLNGGDSIGSYPWGYIPANYPSGGYPDPRFGYDRNSNHSSFSHLMNPHSSQEVPSFDQLGYNDHLYSNHGLYGLYGNVIDSGHAYGTFGYDSWKLGRGWYPVDGYRKTRSFNHGRGYSDEKADRLNELCRGPRSSDFKNPQVLNSSMLDAMKQDVSAVDLQRYNGENFPESFVKAKFFVIKSYSEDDVHNCIKYGAWSSTPTGNKKLNAAYYEAKENSQECPVYLLFSVNASGQFVGLAEMVGPVDFNKTMEYWQQDKWIGCFPVKWHIIKDIPNSLLRHITLANNENKPVTNSRDTQEVNLEHGTKIIKIFKEYMSKTCILDDYKFYETRQKIIRDKKIKQKKQALDGASGETINLS
As for B1, the binding result in data set [1] is recorded as “binds”.

B2: UGUAA RNA (unmodified) (ssRNA)
RNA: UCUUUUGUAAGACUUGUACUCUUUA
With B2, the binding result in data set [2] is given as “no binding”.

B3: UGUm6AA RNA (ssRNA)
RNA: UCUUUUGUAAGACUUGUACUCUUUA
modifications: m6A at position 9
Take B3: in data set [2], the binding result is recorded as “binds”.
